Measurements taken from article PMC5070868.

Key:
Test in all cases: flow cytometry on cells; PBMCs of SLA class I haplotype-defined Microminipigs stained with X2F6 followed by anti-mouse IgG-FITC; lymphoid gate; also after TSST-1 or IFN-γ stimulation
[1] = target: classical class I SLA on PBMCs of Hp-35.0 homozygous Microminipigs
[2] = target: classical class I SLA on PBMCs of Hp-10.0 homozygous Microminipigs
[3] = target: classical class I SLA on PBMCs of Hp-17.0 homozygous Microminipigs

B1: X2F6 monoclonal antibody (antibody, V domains shown)
VH: QVQLQQSGAELVKPGASVKLSCKASGYTFTSYDINWVRQRPEQGLEWIGWIYPGDGSTKYNEKFKGKATLTTDKSSSTAYMQLSRLTSEDSAVYFCASPYYYGSSPFAYWGQGTLVTVSA
VL: DIQMTQSPASLSASVGETVTITCRASENIYSYLAWYQQKQGKSPQLLVYNAKTLAEGVPSRFSGSGSGTQFSLKINSLQPEDFGSYYCQHHYGTPRTFGGGTKLEIK
Question: B1 was tested. Which MFI [1] did it give?
Answer: 767

Question: And the MFI [2]?
Answer: 1900

Question: And the MFI [3]?
Answer: 122
